The values below come from article PMC12582121.

The target of this experiment is glyceraldehyde-3-phosphate dehydrogenase (GAPDH) (human) (UniProt P04406). Put plainly: mass photometry; recombinant GAPDH without RNA; 100 nM GAPDH in binding buffer (10 mM Tris-HCl pH 8.0, 50 mM KCl, 2 mM DTT, 0.5 mM EDTA), 25 min at room temperature, diluted 1:10 for measurement; TwoMP mass photometer; monomer and tetramer peaks seen.

Chain of glyceraldehyde-3-phosphate dehydrogenase (GAPDH), P04406 1-335 (enzyme; other documents disagree on this pair) (P04406 whole entry): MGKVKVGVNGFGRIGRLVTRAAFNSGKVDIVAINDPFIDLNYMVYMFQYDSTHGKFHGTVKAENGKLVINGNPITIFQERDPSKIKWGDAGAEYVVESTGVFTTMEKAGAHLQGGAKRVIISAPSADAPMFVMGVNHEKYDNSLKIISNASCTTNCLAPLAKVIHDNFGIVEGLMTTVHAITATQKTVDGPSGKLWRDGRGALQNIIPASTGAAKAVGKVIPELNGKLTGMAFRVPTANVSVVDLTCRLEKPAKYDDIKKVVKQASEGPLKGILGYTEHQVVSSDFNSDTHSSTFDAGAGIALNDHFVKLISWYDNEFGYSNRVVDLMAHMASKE

With “glyceraldehyde-3-phosphate dehydrogenase (GAPDH), P04406 1-335 (enzyme; other documents disagree on this pair)”, the stoichiometry N is 4.
